Source: US20090227507A1, “Angiotensin (1-7) Dosage Forms and Uses Thereof” (UNIVERSITY OF SOUTHERN CALIFORNIA, priority 2008, published 2009)
Entries after “also recorded” stand apart in the source; their conditions may differ.

Experiments:
[1] = Urinalysis with microscopic examination of sediment in healthy men; format: in vivo, human; conditions: Subject 011, 200 μg/kg
Description: Laboratory measurements were conducted by a local clinical laboratory.
Blood, urobilinogen, ketones, glucose, protein, microscopic examination of sediment, sodium, and potassium.

[2] = Adverse events, safety and tolerability in healthy men
Description: Safety: Safety and tolerance evaluations included: • Tolerability including local reactions at the injection site. • Vital signs (blood pressure [BP], pulse rate [PR], respiration rate [RR], and temperature). • Routine clinical laboratory tests (hematology, serum biochemistry, and urinalysis). • Recording of adverse events (AE). • Electrocardiograms (ECG) at baseline and Day 8.
Descriptive statistics were used to summarize adverse events (AEs). Descriptive statistics, with change from baseline, were used for clinical laboratory results, vital signs, and flow cytometry data. Shift tables were prepared for clinical laboratory results. Other data are listed.
Safety evaluations are based on AEs, PEs, vital signs, temperature, and laboratory results from baseline to study completion. Laboratory measurements were conducted by a local clinical laboratory. Using standard procedures, blood samples were drawn or urine collected from subjects for the following laboratory tests:
All AEs were coded using the Medical Dictionary for Regulatory Activities Version 5.1 (MedDRA®).

[3] = 200 μg/kg group, of the 7 events
[4] = 300 μg/kg group, of the 13 events

Asp-Arg-Val-Tyr-Ile-His-Pro [USB003]
Urine Glucose High/Low Normal/Abnormal ([1]; Day 1): Abnormal
Urine Glucose Significance ([1]; Day 1): CS AE
Urine Glucose Value ([1]; Day 1): +1
Urine Glucose High/Low Normal/Abnormal ([1]; Day 3): N
Urine Glucose Value ([1]; Day 3): neg
incidence of ALT increase ([2]; 200 μg/kg): 22.2%
incidence of body temperature increase ([2]; 200 μg/kg): 0.0%
ALT increased, Events ([2]; 200 μg/kg (N = 9)): 2
ALT increased, Subjects ([2]; 200 μg/kg (N = 9)): 2 (22.2) N (%)
AST increased, Events ([2]; 200 μg/kg (N = 9)): 1
AST increased, Subjects ([2]; 200 μg/kg (N = 9)): 1 (11.1) N (%)
Body temperature increased, Events ([2]; 200 μg/kg (N = 9)): 0
Body temperature increased, Subjects ([2]; 200 μg/kg (N = 9)): 0 (0.0) N (%)
Cyst NOS, Events ([2]; 200 μg/kg (N = 9)): 1
Cyst NOS, Subjects ([2]; 200 μg/kg (N = 9)): 1 (11.1) N (%)
Gastroesophageal reflux, Events ([2]; 200 μg/kg (N = 9)): 0
Gastroesophageal reflux, Subjects ([2]; 200 μg/kg (N = 9)): 0 (0.0) N (%)
Gastrointestinal disorders, Events ([2]; 200 μg/kg (N = 9)): 0
Gastrointestinal disorders, Subjects ([2]; 200 μg/kg (N = 9)): 0 (0.0) N (%)
Headache, Events ([2]; 200 μg/kg (N = 9)): 0
Headache, Subjects ([2]; 200 μg/kg (N = 9)): 0 (0.0) N (%)
Infections/Infestations, Events ([2]; 200 μg/kg (N = 9)): 0
Injury, poisoning and procedural complications, Events ([2]; 200 μg/kg (N = 9)): 0
Injury, poisoning and procedural complications, Subjects ([2]; 200 μg/kg (N = 9)): 0 (0.0) N (%)
Investigations, Events ([2]; 200 μg/kg (N = 9)): 4
Investigations, Subjects ([2]; 200 μg/kg (N = 9)): 2 (22.2) N (%)
Joint sprain, Events ([2]; 200 μg/kg (N = 9)): 0
Joint sprain, Subjects ([2]; 200 μg/kg (N = 9)): 0 (0.0) N (%)
Nasal congestion, Events ([2]; 200 μg/kg (N = 9)): 1
Nasal congestion, Subjects ([2]; 200 μg/kg (N = 9)): 1 (11.1) N (%)
Nausea, Events ([2]; 200 μg/kg (N = 9)): 0
Nausea, Subjects ([2]; 200 μg/kg (N = 9)): 0 (0.0) N (%)
Neoplasms benign, Events ([2]; 200 μg/kg (N = 9)): 1
Neoplasms benign, Subjects ([2]; 200 μg/kg (N = 9)): 1 (11.1) N (%)
Nervous system disorders, Events ([2]; 200 μg/kg (N = 9)): 0
Nervous system disorders, Subjects ([2]; 200 μg/kg (N = 9)): 0 (0.0) N (%)
Neutrophil count increased, Events ([2]; 200 μg/kg (N = 9)): 0
Neutrophil count increased, Subjects ([2]; 200 μg/kg (N = 9)): 0 (0.0) N (%)
Pharyngitis, Events ([2]; 200 μg/kg (N = 9)): 1
Pharyngitis, Subjects ([2]; 200 μg/kg (N = 9)): 1 (11.1) N (%)
Respiratory, thoracic and mediastinal disorders, Events ([2]; 200 μg/kg (N = 9)): 2
Respiratory, thoracic and mediastinal disorders, Subjects ([2]; 200 μg/kg (N = 9)): 1 (11.1) N (%)
Subjects With At Least 1 AE, Events ([2]; 200 μg/kg (N = 9)): 7
Subjects With At Least 1 AE, Subjects ([2]; 200 μg/kg (N = 9)): 4 (44.4) N (%)
WBC increased, Events ([2]; 200 μg/kg (N = 9)): 1
WBC increased, Subjects ([2]; 200 μg/kg (N = 9)): 1 (11.1) N (%)
White blood cells in urine, Events ([2]; 200 μg/kg (N = 9)): 0
White blood cells in urine, Subjects ([2]; 200 μg/kg (N = 9)): 0 (0.0) N (%)
subjects with clinically significant (CS) out-of-range laboratory values ([2]; 200 μg/kg dose group): 3
total CS laboratory abnormalities ([2]; 200 μg/kg dose group): 6
incidence of AEs ([2]; 200 μg/kg group): 44.4%
AE events assessed as doubtful relationship to study drug [2, 3]: 3
AE events assessed as not related to study drug [2, 3]: 2
AE events assessed as possible relationship to study drug [2, 3]: 2
adverse event, Subject 028 ([2]; 200 μg/kg, Day 7, resolved without treatment on Study Day 10): cystic nodule on their anterior abdominal wall
incidence of ALT increase ([2]; 300 μg/kg): 0.0%
incidence of body temperature increase ([2]; 300 μg/kg): 50%
ALT increased, Events ([2]; 300 μg/kg (N = 8)): 0
ALT increased, Subjects ([2]; 300 μg/kg (N = 8)): 0 (0.0) N (%)
AST increased, Events ([2]; 300 μg/kg (N = 8)): 1
AST increased, Subjects ([2]; 300 μg/kg (N = 8)): 1 (12.5) N (%)
Body temperature increased, Events ([2]; 300 μg/kg (N = 8)): 7
Body temperature increased, Subjects ([2]; 300 μg/kg (N = 8)): 4 (50.0) N (%)
Cyst NOS, Events ([2]; 300 μg/kg (N = 8)): 0
Cyst NOS, Subjects ([2]; 300 μg/kg (N = 8)): 0 (0.0) N (%)
Gastroesophageal reflux, Events ([2]; 300 μg/kg (N = 8)): 0
Gastroesophageal reflux, Subjects ([2]; 300 μg/kg (N = 8)): 0 (0.0) N (%)
Gastrointestinal disorders, Events ([2]; 300 μg/kg (N = 8)): 1
Gastrointestinal disorders, Subjects ([2]; 300 μg/kg (N = 8)): 1 (12.5) N (%)
Headache, Events ([2]; 300 μg/kg (N = 8)): 0
Headache, Subjects ([2]; 300 μg/kg (N = 8)): 1 (12.5) N (%)
Infections/Infestations, Events ([2]; 300 μg/kg (N = 8)): 1
Injury, poisoning and procedural complications, Events ([2]; 300 μg/kg (N = 8)): 1
Injury, poisoning and procedural complications, Subjects ([2]; 300 μg/kg (N = 8)): 1 (12.5) N (%)
Investigations, Events ([2]; 300 μg/kg (N = 8)): 9
Investigations, Subjects ([2]; 300 μg/kg (N = 8)): 4 (50.0) N (%)
Joint sprain, Events ([2]; 300 μg/kg (N = 8)): 1
Joint sprain, Subjects ([2]; 300 μg/kg (N = 8)): 1 (12.5) N (%)
Nasal congestion, Events ([2]; 300 μg/kg (N = 8)): 0
Nasal congestion, Subjects ([2]; 300 μg/kg (N = 8)): 0 (0.0) N (%)
Nausea, Events ([2]; 300 μg/kg (N = 8)): 1
Nausea, Subjects ([2]; 300 μg/kg (N = 8)): 1 (12.5) N (%)
Neoplasms benign, Events ([2]; 300 μg/kg (N = 8)): 0
Neoplasms benign, Subjects ([2]; 300 μg/kg (N = 8)): 0 (0.0) N (%)
Nervous system disorders, Events ([2]; 300 μg/kg (N = 8)): 0
Nervous system disorders, Subjects ([2]; 300 μg/kg (N = 8)): 1 (12.5) N (%)
Neutrophil count increased, Events ([2]; 300 μg/kg (N = 8)): 1
Neutrophil count increased, Subjects ([2]; 300 μg/kg (N = 8)): 1 (12.5) N (%)
Pharyngitis, Events ([2]; 300 μg/kg (N = 8)): 0
Pharyngitis, Subjects ([2]; 300 μg/kg (N = 8)): 0 (0.0) N (%)
Respiratory, thoracic and mediastinal disorders, Events ([2]; 300 μg/kg (N = 8)): 0
Respiratory, thoracic and mediastinal disorders, Subjects ([2]; 300 μg/kg (N = 8)): 0 (0.0) N (%)
Subjects With At Least 1 AE, Events ([2]; 300 μg/kg (N = 8)): 13
Subjects With At Least 1 AE, Subjects ([2]; 300 μg/kg (N = 8)): 4 (50.0) N (%)
WBC increased, Events ([2]; 300 μg/kg (N = 8)): 0
WBC increased, Subjects ([2]; 300 μg/kg (N = 8)): 0 (0.0) N (%)
White blood cells in urine, Events ([2]; 300 μg/kg (N = 8)): 0
White blood cells in urine, Subjects ([2]; 300 μg/kg (N = 8)): 0 (0.0) N (%)
subjects with clinically significant (CS) out-of-range laboratory values ([2]; 300 μg/kg dose group): 1
total CS laboratory abnormalities ([2]; 300 μg/kg dose group): 2
subjects with elevations in oral body temperature assessed as an AE ([2]; 300 μg/kg dose group, temperature >37.7° C.): 4
incidence of AEs ([2]; 300 μg/kg group): 50.0%
AE events assessed as doubtful relationship to study drug [2, 4]: 2
AE events assessed as not related to study drug [2, 4]: 3
AE events assessed as possible relationship to study drug [2, 4]: 8
onset of headache after the morning dose, Subject 053 ([2]; 300 μg/kg, Day 2): 10 h
time to resolution of headache without treatment, Subject 053 ([2]; 300 μg/kg, Day 2): 5 h
severity of ankle sprain, Subject 046 ([2]; 300 μg/kg, study Day 18): Grade 2
deaths or serious adverse events ([2]; SC doses of 200 and 300 μg/kg): no deaths or other serious adverse events; also recorded: no deaths or SAEs
discontinuation from the study because of an AE ([2]; SC doses of 200 and 300 μg/kg): no subject discontinued from the study because of an AE; also recorded: no AE led to withdrawal from the study
safety and tolerability ([2]; SC doses of 200 and 300 μg/kg): safe and well tolerated
CTC scores of AEs ([2]; whole study): no AEs with CTC scores of Grade 3 or higher and only 1 Grade 2 toxicity
